The source of these data is US20220002432A1 (VIRTUOSO BINCO, published 2022).

For assay [1], the target named is T1, Rhesus-ICAM1 (rhesus, UniProt Q5NKV6 28-480, limits assumed).
T1 sequence (looked up): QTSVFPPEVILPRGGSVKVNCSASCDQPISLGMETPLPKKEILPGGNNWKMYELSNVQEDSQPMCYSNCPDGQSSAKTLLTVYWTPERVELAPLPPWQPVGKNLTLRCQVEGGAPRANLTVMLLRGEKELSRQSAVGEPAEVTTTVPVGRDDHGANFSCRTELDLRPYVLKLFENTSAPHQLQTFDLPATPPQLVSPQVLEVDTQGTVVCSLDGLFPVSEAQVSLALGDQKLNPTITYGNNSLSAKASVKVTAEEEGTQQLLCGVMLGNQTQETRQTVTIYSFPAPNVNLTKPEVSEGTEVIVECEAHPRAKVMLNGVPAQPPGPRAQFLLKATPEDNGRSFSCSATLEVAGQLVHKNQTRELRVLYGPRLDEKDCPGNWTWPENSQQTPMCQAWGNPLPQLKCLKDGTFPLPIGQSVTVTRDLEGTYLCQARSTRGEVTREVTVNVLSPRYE
Nature of the assay: ELISA: plate coated with 1 ug/ml recombinant rhesus ICAM1 ECD, serially diluted antibody, OD450. In general terms: In an ELISA, binding on a coated surface is turned into a signal by an enzyme label.
Procedure: (§1) The plate was coated overnight at 4° C. with 1 μg/ml recombinant CD38 or ICAM1. After washing 3 times, the plate was blocked with 300 μl 1% BSA in PBST at 37° C. for 1 hour. Serially diluted antibodies were added and incubated at 37° C. for 1 hour. The plate was then washed 4 times with PBST and incubated with 1:5000 diluted 2nd antibody (Sigma, Cat #A0293) at 37° C. for 1 hour.

In assay [2] the target is T1, Rhesus-ICAM1. The assay can be described thus: SPR (Biacore 8K), antibody captured, antigen injected. Background: SPR reads the build-up and loss of mass on a sensor chip optically.
Procedure: (§2) The binding kinetics of the anti-CD38 and anti-ICAM1 antibodies were evaluated on a Biacore 8K instrument (GE Healthcare). Biacore Series S CM5 sensor chips were immobilized with monoclonal mouse anti-human IgG (Fc) antibody (human antibody capture kit from GE Healthcare). Antibodies were captured on each flow cell. Serial 3-fold dilutions of each antigen were injected at a flow rate of 30 μl/min. Each sample was analyzed with 1 min association and 10 min dissociation at room temperature (25° C.). After each injection, the chip was regenerated using 3M MgCl₂. A 1:1 Langmuir model of simultaneous fitting of kₒₙ and koff was used for kinetics analysis.
Assay [3] has as its target T2, recombinant human ICAM1 (human, UniProt P05362 28-480, limits assumed). The description is as above.
Procedure: as §2
Assay [4] concerns the target T2, recombinant human ICAM1. Nature of the assay: ELISA: plate coated with 1 ug/ml recombinant human ICAM1 ECD, serially diluted antibody, OD450.
Procedure: as §1
The target of assay [5] is T3, ICAM1 on the surface of DU145 cells (human, UniProt P05362 28-532).
T3 construct: whole, on cells
Nature of the assay: flow cytometry, DU145 cells.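 Note: purified antibodies in dilution series bound to cells for 1 h at 4 °C, detected with a fluorescent secondary antibody (1 h, 4 °C, dark), read by flow cytometry.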
Procedure: Harvested cells were centrifuged at 2000 rpm for 5 min and resuspended with 10-15 ml ice-cold culture medium. Cells were counted and then 3×10⁶ cells were resuspended per mL of blocking buffer (PBS plus 2% FBS). 100 μl of the cell suspension was dispensed into each well of a 96-well plate and incubated at room temperature for 10-20 min. […] While incubating, purified antibodies were diluted to the desired dilution with blocking buffer. After a 10-20 minutes incubation, cells were centrifuged for 5 min at 2000 rmp in a refrigerated centrifuge. Blocking buffer was aspirated, and cells were resuspended in 100 μl/well diluted antibodies and incubated for 1 hour at 4° C. The cells were then washed 3 times with PBS plus 2% FBS. After the final wash, the cells were resuspended in 100 μl 1:500 diluted secondary antibody (Invitrogen, Cat #: A10631) and incubated for 1 hour at 4° C. in the dark. The cells were then washed 3 times with 200 μl PBS by centrifuging at 2000 rpm for 5 min. After the last wash, the cells were resuspended in 300 μl cold PBS and analyzed on a FACSVerse™ (BD Biosciences) flow cytometer.

Another assay deals with recombinant human CD38 (human, UniProt P28907 43-300, limits assumed). Nature of the assay: SPR (Biacore 8K), antibody captured, antigen injected.
For another assay, the target named is T4, cynomolgus CD38 ECD (cynomolgus, UniProt Q5VAN0 44-301, biotinylated on the AviTag during preparation).
T4 construct: also called Cyno-CD38; Avi-Cyno CD38 ECD
The assay is described as above.

T2 sequence (P05362 28-480 limits assumed): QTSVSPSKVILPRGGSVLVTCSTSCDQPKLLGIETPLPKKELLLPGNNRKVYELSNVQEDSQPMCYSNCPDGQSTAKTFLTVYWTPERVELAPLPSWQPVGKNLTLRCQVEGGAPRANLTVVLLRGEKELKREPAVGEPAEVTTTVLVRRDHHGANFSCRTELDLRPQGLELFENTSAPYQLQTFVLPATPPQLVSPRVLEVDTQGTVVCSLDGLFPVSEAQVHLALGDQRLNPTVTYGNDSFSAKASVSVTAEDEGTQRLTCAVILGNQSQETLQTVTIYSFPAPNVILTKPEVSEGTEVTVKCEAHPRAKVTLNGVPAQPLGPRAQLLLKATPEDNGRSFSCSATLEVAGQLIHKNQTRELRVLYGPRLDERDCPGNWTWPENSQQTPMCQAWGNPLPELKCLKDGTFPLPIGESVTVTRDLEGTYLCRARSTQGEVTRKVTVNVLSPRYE
T3 sequence (P05362 28-532): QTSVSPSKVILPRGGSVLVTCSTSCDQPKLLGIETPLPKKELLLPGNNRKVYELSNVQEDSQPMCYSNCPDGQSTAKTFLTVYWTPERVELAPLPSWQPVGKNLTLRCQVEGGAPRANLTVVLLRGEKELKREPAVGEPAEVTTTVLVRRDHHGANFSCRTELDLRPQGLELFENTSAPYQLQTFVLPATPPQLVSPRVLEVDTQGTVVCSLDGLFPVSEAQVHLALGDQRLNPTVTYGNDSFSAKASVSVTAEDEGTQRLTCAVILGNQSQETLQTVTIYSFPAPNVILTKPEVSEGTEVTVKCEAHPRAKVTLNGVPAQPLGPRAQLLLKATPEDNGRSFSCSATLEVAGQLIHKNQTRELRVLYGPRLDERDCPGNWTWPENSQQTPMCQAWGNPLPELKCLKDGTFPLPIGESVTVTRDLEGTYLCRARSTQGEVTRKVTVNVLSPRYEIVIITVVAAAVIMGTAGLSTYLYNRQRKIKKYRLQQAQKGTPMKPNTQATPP
Procedure for cynomolgus CD38 ECD: as §2
Procedure for recombinant human CD38: as §2

B1: 8H1 (antibody, human IgG1, kappa, V domains shown)
VH: QSVEESGGRLVTPGTPLTLTCTASGFSLSNYYMSWVRQAPGKGLEWIGIISDSGSTYYASWAKGRFTISKTSTTVDLKITSPTTEDTATYFCARDWSYDSSSGYYYYDMDLWGPGTLVTVSA
VL: GYDMTQTPASVEVAVGGTVTIKCQASQSINSWLAWFQHKPGQPPKRLIYKASTLASGVSSRFKGSGSGTQFTLTISGVESADAATYYCQQGYSRSDGEHVFGGGTEVVVKR
notes: Rabbit-human chimeric anti-ICAM1: rabbit VH and VL on human IgG1 and kappa constant regions
In general, EC50 (read off the curve) refers to the midpoint of the concentration-response curve. The term Kd denotes the concentration at which binding is half-saturated. For orientation: koff means a measure of how fast the partners let go of each other. As usually defined, the kon is the rate constant with which the complex forms. One may read the EC50 as the concentration needed to bring the measured effect to its halfway point. Read a high EC50 as a less potent agent. On to B1, for which the “EC50 (read off the curve)” value in the assay with Rhesus-ICAM1 [1] was roughly 0.04 nM. Also, in the assay with Rhesus-ICAM1 [2], the Kd worked out at 2.92 nM, the koff came to 0.00125 s⁻¹ and the kon is 427000 M⁻¹ s⁻¹. Moreover, in the assay with recombinant human ICAM1 [3], the Kd stood at 3.1 nM, the koff amounted to 0.000345 s⁻¹ and the kon amounted to 111000 M⁻¹ s⁻¹. Besides, the “EC50 (read off the curve)” value with recombinant human ICAM1 [4] was roughly 0.04 nM. Moreover, in assay [5], the EC50 amounted to 1.82 nM and the “Max Binding MFI” value was found to be 5270 MFI.

B2: 4H5 (antibody, human IgG1, kappa, V domains shown)
VH: QSVEESGGRLVTPGTPLTLTCTASGFSLSNYYMSWVRQAPGKGLEWIGIISDSGTTYYASWAKGRFTISKTSTTVDLKITSPTTEDTATYFCARDWSYDSSSGYYYYDMDLWGPGTLVTVSA
VL: GYDMTQTPASVEVAVGGTVTIKCQASQSINSWLVWFQHKPGQPPKRLIYKASTLASGVSSRFKGSGSGTHFTLTISGVESADAATYYCQQGYSRSDGEHVFGGGTEVVVKR
notes: as for B1
On to B2, for which the “EC50 (read off the curve)” value in the assay with Rhesus-ICAM1 [1] is roughly 0.04 nM. Also, in the assay with Rhesus-ICAM1 [2], the Kd was 4.11 nM, the koff came to 0.000568 s⁻¹ and the kon worked out at 138000 M⁻¹ s⁻¹. Further, in the assay with recombinant human ICAM1 [3], the Kd amounted to 3.39 nM, the koff turned out to be 0.000256 s⁻¹ and the association rate constant (kon) was found to be 75600 M⁻¹ s⁻¹. In addition, the “EC50 (read off the curve)” value with recombinant human ICAM1 [4] was roughly 0.04 nM. Further, in assay [5], the EC50 was determined as 1.31 nM and the “Max Binding MFI” value is 4720 MFI.

B3: 14H1 (antibody, human IgG1, kappa, V domains shown)
VH: QSVEESGGRLVTPGTPLTLTCTVSGFSLSNYYMSWVRQAPGKGLEWIGIISDSGSTYYASWAKGRFTISKTSTTVDLSITSPTTEDTATYFCARDWSYDSTSGYYYYDMDLWGPGTLVTVSA
VL: AYDMTQTPASVEVAVGGTVTIKCQASQSINSWLSWFHQKPGQPPKRLIYKASTLASGVSSRFKGSGSGTQFTLTISGVESADAATYYCQQGYSRSDGEHVFGGGTEVVVKR
notes: as for B1
In the case of B3, the “EC50 (read off the curve)” value with Rhesus-ICAM1 [1] is roughly 0.04 nM. Also, in the assay with Rhesus-ICAM1 [2], the dissociation constant (Kd) was 2.25 nM, the off-rate (koff) came out at 0.000434 s⁻¹ and the on-rate (kon) was 193000 M⁻¹ s⁻¹. For the same molecule, in the assay with recombinant human ICAM1 [3], the dissociation constant (Kd) turned out to be 1.62 nM, the koff turned out to be 0.000237 s⁻¹ and the kon was 146000 M⁻¹ s⁻¹. Also, in the assay with recombinant human ICAM1 [4], the “EC50 (read off the curve)” value is roughly 0.04 nM. Moreover, in assay [5], the EC50 is 0.591 nM and the “Max Binding MFI” value was 4690 MFI.

B4: 4618_1 (antibody, human IgG1, kappa, V domains shown)
VH: EVQLLESGGGLVQPGGSLRLSCAASGFPFDVYAMSWVRQAPGKGLEWVSAISGSGGSTFYADSVKGRFTISRDNSKNTLYLQMNSLRAEDTAVYYCAKRGTYAYSFPTGFDYWGQGTLVTVSS
VL: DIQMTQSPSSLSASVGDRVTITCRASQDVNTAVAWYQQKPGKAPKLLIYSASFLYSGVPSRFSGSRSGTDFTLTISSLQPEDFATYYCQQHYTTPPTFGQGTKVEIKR
notes: Human IgG1 with the common anti-HER2 light chain; Library-derived anti-CD38
For B4, in the assay with recombinant human CD38, the Kd was determined as 3.81 nM, the koff was determined as 0.00188 s⁻¹ and the on-rate constant (kon) stood at 494000 M⁻¹ s⁻¹. In the assay with cynomolgus CD38 ECD, the Kd came to 1.68 nM, the koff was 0.00288 s⁻¹ and the kon is 1.71e+06 M⁻¹ s⁻¹.

B5: 4618_1_12 (antibody, human IgG1, kappa, V domains shown)
VH: EVQLLESGGGLVQPGGSLRLSCAASGFPFDVYAMSWVRQAPGKGLEWVSAISGSGGSTFYADSVKGRFTISRDNSKNTLYLQMNSLRAEDTAVYYCAKRGTYAYSYPTGFDYWGQGTLVTVSS
VL: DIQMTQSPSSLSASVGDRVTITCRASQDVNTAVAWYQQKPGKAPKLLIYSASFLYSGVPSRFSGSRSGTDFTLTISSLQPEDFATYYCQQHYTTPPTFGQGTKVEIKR
notes: as for B4
With B5, in the assay with recombinant human CD38, the Kd was 0.42 nM, the koff was found to be 0.000273 s⁻¹ and the kon amounted to 657000 M⁻¹ s⁻¹. In the assay with cynomolgus CD38 ECD, this molecule displayed a Kd of 0.62 nM, an off-rate constant (koff) of 0.00157 s⁻¹ and a kon of 2.53e+06 M⁻¹ s⁻¹.

B6: 4618_12 (antibody, human IgG1, kappa, V domains shown)
VH: EVQLLESGGGLVQPGGSLRLSCAASGFPFGVYAMSWVRQAPGKGLEWVSAISGSGGSTFYADSVKGRFTISRDNSKNTLYLQMNSLRAEDTAVYYCAKRGTYAYSYPTGFDYWGQGTLVTVSS
VL: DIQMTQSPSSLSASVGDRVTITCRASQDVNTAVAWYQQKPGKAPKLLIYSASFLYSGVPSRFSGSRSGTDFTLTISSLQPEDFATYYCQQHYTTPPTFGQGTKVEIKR
notes: Human IgG1 with the common anti-HER2 light chain
B6: in the assay with recombinant human CD38, the equilibrium dissociation constant (Kd) was determined as 1.79 nM, the koff amounted to 0.00077 s⁻¹ and the kon came out at 430000 M⁻¹ s⁻¹. In the assay with cynomolgus CD38 ECD, this molecule registered a Kd of 1.65 nM, a koff of 0.00253 s⁻¹ and an association rate constant (kon) of 1.53e+06 M⁻¹ s⁻¹.

B7: 4618_5_12 (antibody, human IgG1, kappa, V domains shown)
VH: EVQLLESGGGLVQPGGSLRLSCAASGFPFDAYAMSWVRQAPGKGLEWVSAISGSGGSTYYADSVKGRFTISRDNSKNTLYLQMNSLRAEDTAVYYCAKRGTYAYSYPTGFDYWGQGTLVTVSS
VL: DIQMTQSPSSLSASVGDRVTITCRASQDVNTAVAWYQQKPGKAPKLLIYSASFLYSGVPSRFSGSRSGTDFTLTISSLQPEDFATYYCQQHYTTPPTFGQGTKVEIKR
notes: as for B4
Take B7: in the assay with recombinant human CD38, the Kd was determined as 1.68 nM, the off-rate (koff) was found to be 0.000596 s⁻¹ and the kon is 354000 M⁻¹ s⁻¹. In the assay with cynomolgus CD38 ECD, this molecule registered a Kd of 1.33 nM, a koff of 0.00168 s⁻¹ and a kon of 1.26e+06 M⁻¹ s⁻¹.

B8: 32018_7 (antibody, human IgG1, kappa, V domains shown)
VH: EVQLLESGGGLVQPGGSLRLSCAASGFPFGTYAMSWVRQAPGKGLEWVSAISGSGGSTFYADSVKGRFTISRDNSKNTLYLQMNSLRAEDTAVYYCAKRGTYGYSFPTGFDYWGQGTLVTVSS
VL: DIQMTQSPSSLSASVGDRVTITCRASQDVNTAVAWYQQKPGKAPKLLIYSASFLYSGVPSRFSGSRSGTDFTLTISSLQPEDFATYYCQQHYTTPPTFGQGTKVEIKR
notes: as for B4
Turning to B8, in the assay with recombinant human CD38, the Kd turned out to be 38.2 nM, the off-rate constant (koff) was found to be 0.0116 s⁻¹ and the kon was 304000 M⁻¹ s⁻¹. In addition, in the assay with cynomolgus CD38 ECD, the affinity, expressed as Kd, was 12.4 nM; the koff was 0.0155 s⁻¹; the kon stood at 1.25e+06 M⁻¹ s⁻¹.

B9: 4618_5 (antibody, human IgG1, kappa, V domains shown)
VH: EVQLLESGGGLVQPGGSLRLSCAASGFPFDAYAMSWVRQAPGKGLEWVSAISGSGGSTYYADSVKGRFTISRDNSKNTLYLQMNSLRAEDTAVYYCAKRGTYAYSFPTGFDYWGQGTLVTVSS
VL: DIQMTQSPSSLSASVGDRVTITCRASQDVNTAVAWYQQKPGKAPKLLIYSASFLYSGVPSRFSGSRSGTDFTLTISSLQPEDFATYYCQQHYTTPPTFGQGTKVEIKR
notes: as for B4
Turning to B9, in the assay with recombinant human CD38, the Kd worked out at 2.23 nM, the off-rate (koff) is 0.00121 s⁻¹ and the kon came to 542000 M⁻¹ s⁻¹. In addition, in the assay with cynomolgus CD38 ECD, the Kd amounted to 1.48 nM, the koff was found to be 0.00321 s⁻¹ and the kon was 2.17e+06 M⁻¹ s⁻¹.

B10: 32218_2 (antibody, human IgG1, kappa, V domains shown)
VH: EVQLLESGGGLVQPGGSLRLSCAASGFPFDTYAMSWVRQAPGKGLEWVSAISGSGGSTYYADSVKGRFTISRDNSKNTLYLQMNSLRAEDTAVYYCAKRGTYAYSFPTGFDYWGQGTLVTVSS
VL: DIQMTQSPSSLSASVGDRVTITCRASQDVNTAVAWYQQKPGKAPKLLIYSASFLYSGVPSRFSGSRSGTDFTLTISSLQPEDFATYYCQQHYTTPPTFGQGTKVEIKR
notes: as for B4
As to B10, in the assay with recombinant human CD38, the Kd was 13.1 nM, the dissociation rate constant (koff) stood at 0.00887 s⁻¹ and the kon worked out at 675000 M⁻¹ s⁻¹. In the assay with cynomolgus CD38 ECD, the Kd worked out at 7.43 nM, the off-rate constant (koff) stood at 0.0156 s⁻¹ and the kon is 2.1e+06 M⁻¹ s⁻¹.

B11: 32218_1 (antibody, human IgG1, kappa, V domains shown)
VH: EVQLLESGGGLVQPGGSLRLSCAASGFPFGVYAMSWVRQAPGKGLEWVSAISGSGGSTFYADSVKGRFTISRDNSKNTLYLQMNSLRAEDTAVYYCAKRGTYAYSFPTGFDYWGQGTLVTVSS
VL: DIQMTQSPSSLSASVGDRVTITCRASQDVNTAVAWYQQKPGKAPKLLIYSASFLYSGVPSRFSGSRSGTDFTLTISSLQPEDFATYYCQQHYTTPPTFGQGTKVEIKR
notes: as for B4
As for B11, in the assay with recombinant human CD38, the Kd was found to be 3.61 nM, the koff was determined as 0.00178 s⁻¹ and the on-rate (kon) stood at 493000 M⁻¹ s⁻¹. In the assay with cynomolgus CD38 ECD, this molecule showed a Kd of 4.1 nM, a koff of 0.00496 s⁻¹ and a kon of 1.21e+06 M⁻¹ s⁻¹.

B12: 4618_5F_12 (antibody, human IgG1, kappa, V domains shown)
VH: EVQLLESGGGLVQPGGSLRLSCAASGFPFDAYAMSWVRQAPGKGLEWVSAISGSGGSTFYADSVKGRFTISRDNSKNTLYLQMNSLRAEDTAVYYCAKRGTYAYSYPTGFDYWGQGTLVTVSS
VL: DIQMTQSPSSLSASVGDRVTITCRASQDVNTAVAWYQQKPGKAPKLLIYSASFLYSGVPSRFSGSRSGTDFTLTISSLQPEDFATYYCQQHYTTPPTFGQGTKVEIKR
notes: as for B6
Turning to B12, in the assay with recombinant human CD38, the Kd is 0.66 nM, the koff was determined as 0.000295 s⁻¹ and the kon was 449000 M⁻¹ s⁻¹. In the assay with cynomolgus CD38 ECD, this molecule showed a Kd of 0.83 nM, a koff of 0.00144 s⁻¹ and a kon of 1.74e+06 M⁻¹ s⁻¹.
